T1: Azami-Green fusion cynomolgus monkey CRTH2 (cynomolgus monkey, UniProt Q9Y5Y4 1-395 (human entry))
T1 construct: Expressed on CHO/DG44 cells; not shown: Azami-Green tag from vector phmAG1-MNLinker (MBL)
T1 chain: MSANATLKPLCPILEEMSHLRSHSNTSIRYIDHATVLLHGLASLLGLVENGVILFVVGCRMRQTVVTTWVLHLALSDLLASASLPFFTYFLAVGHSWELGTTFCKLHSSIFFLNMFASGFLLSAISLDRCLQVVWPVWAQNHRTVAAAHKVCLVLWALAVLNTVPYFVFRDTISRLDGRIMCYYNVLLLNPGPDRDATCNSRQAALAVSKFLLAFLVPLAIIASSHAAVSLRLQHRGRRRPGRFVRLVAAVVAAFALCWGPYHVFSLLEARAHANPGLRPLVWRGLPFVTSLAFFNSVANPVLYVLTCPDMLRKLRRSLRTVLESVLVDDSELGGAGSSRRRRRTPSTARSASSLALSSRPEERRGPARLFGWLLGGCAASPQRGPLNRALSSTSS

T2: FLAG fusion human CRTH2 (human, UniProt Q9Y5Y4 1-395)
T2 construct: Expressed on rat 3Y1-B cells; also called human CRTH2 with a C terminal to which a FLAG tag was added; not shown: FLAG tag at the C terminal
T2 sequence: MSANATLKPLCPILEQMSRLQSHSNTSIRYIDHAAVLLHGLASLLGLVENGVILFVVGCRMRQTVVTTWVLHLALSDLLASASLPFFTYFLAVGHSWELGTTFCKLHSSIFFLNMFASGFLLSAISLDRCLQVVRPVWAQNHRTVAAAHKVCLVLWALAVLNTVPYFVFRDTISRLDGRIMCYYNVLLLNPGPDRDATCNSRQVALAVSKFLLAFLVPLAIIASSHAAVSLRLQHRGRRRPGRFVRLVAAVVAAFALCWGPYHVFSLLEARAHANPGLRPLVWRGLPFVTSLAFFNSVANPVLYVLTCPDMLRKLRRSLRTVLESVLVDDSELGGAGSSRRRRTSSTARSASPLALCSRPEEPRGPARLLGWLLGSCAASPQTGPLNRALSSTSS

B1: humanized Lym2 antibody LV0HV1 (antibody, V domains shown)
VH: EVQLVESGGGVVQPGRSLRLSCAASGFTFSNYYMAWVRQAPGKGLEWVATISYDGSSTYYRDSVKGRFTISRDNAKNSLYLQMNSLRAEDTATYYCARHRGYYYSGAGYFDYWGQGTMVTVSS
VL: DIVMTQTPLSLPVTPGESASISCRSSQSLEYSDGYTYLEWYLQKPGQSPQVLIYGVSNRFSGVPDRFSGSGSGTDFTLKISRVEAEDVGVYYCFQATHDPLTFGQGTKLEIK
notes: also called humanized anti-human CRTH2 antibody LV0HV1
B2: humanized Lym2 antibody LV0HV0 (antibody, V domains shown)
VH: B1 VH with T93V
VL: B1 VL
B3: rat/human chimeric Lym2 antibody (antibody, V domains shown)
VH: B1 VH with V11L, L18M, R19K, G42K, N77S, S78T, N84D, A88S, T117V
VL: DVVLTQTPVSLSVTLGDQASISCRSSQSLEYSDGYTYLEWYLQKPGQSPQVLIYGVSNRFSGVPDRFIGSGSGTDFTLKISRVEPEDLGVYYCFQATHDPLTFGSGTKLEIK
notes: expressed in FUT8 knockout CHO cells; also called chLym2
B4: humanized Lym2 antibody LV3aHV0 (antibody, V domains shown)
VH: B1 VH with T93V
VL: B1 VL with I2V, M4L, A85P
B5: humanized Lym2 antibody LV2cHV0 (antibody, V domains shown)
VH: B1 VH with T93V
VL: B1 VL with I2V, M4L
B6: humanized Lym2 antibody LV2aHV4 (antibody, V domains shown)
VH: B1 VH with L18M, N77S, T117V
VL: B1 VL with M4L, P15L
B7: humanized Lym2 antibody LV3aHV4 (antibody, V domains shown)
VH: B1 VH with L18M, N77S, T117V
VL: B1 VL with I2V, M4L, A85P
B8: humanized Lym2 antibody LV2cHV4 (antibody, V domains shown)
VH: B1 VH with L18M, N77S, T117V
VL: B1 VL with I2V, M4L
B9: humanized Lym2 antibody LV3bHV0 (antibody, V domains shown)
VH: B1 VH with T93V
VL: B1 VL with I2V, M4L, P15L
B10: humanized Lym2 antibody LV4HV0 (antibody, V domains shown)
VH: B1 VH with T93V
VL: B1 VL with I2V, M4L, P15L, A85P
B11: humanized Lym2 antibody LV0HV2a (antibody, V domains shown)
VH: B1 VH with T117V
VL: B1 VL
B12: humanized Lym2 antibody LV1HV4 (antibody, V domains shown)
VH: B1 VH with L18M, N77S, T117V
VL: B1 VL with P15L
B13: humanized Lym2 antibody LV4HV4 (antibody, V domains shown)
VH: B1 VH with L18M, N77S, T117V
VL: B1 VL with I2V, M4L, P15L, A85P
B14: humanized Lym2 antibody LV3bHV4 (antibody, V domains shown)
VH: B1 VH with L18M, N77S, T117V
VL: B1 VL with I2V, M4L, P15L
B15: humanized Lym2 antibody LV0HV2b (antibody, V domains shown)
VH: B1 VH with L18M, T93V, T117V
VL: B1 VL
B16: humanized Lym2 antibody LV2bHV0 (antibody, V domains shown)
VH: B1 VH with T93V
VL: B1 VL with P15L, A85P
B17: humanized Lym2 antibody LV2aHV0 (antibody, V domains shown)
VH: B1 VH with T93V
VL: B1 VL with M4L, P15L
B18: humanized Lym2 antibody LV2bHV4 (antibody, V domains shown)
VH: B1 VH with L18M, N77S, T117V
VL: B1 VL with P15L, A85P
B19: humanized Lym2 antibody LV1HV0 (antibody, V domains shown)
VH: B1 VH with T93V
VL: B1 VL with P15L
B20: humanized Lym2 antibody LV0HV3 (antibody, V domains shown)
VH: B1 VH with L18M, T117V
VL: B1 VL
B21: humanized Lym2 antibody LV0HV4 (antibody, V domains shown)
VH: B1 VH with L18M, N77S, T117V
VL: B1 VL

Substitutions are numbered along the chain they refer to. Values joined by “and” are separate entries in the source; they are usually repeats but may differ in a detail not shown here. Identical values can stand only once.

For the first assay, the target named is T1, Azami-Green fusion cynomolgus monkey …. In words: flow cytometry on Azami-Green fusion cynomolgus monkey CRTH2-expressing CHO/DG44 cells, 2-30000 ng/mL. The procedure: The Azami-Green fusion human CRTH2-expressing CHO/DG44 cells and the cynomolgus monkey CRTH2-expressing CHO/DG44 cells established in Example 24 were peeled using 0.02% EDTA solution (NACALAI TESQUE, Inc.), washed with PBS, and suspended with SM. Next, the cells were seeded in a 96-well plate such that each well had 2×10⁵ cells, and humanized Lym2 antibody LV0HV1 or the anti-DNP IgG1 antibody at each of final concentrations 30000, 7500, 1875, 469, 117, 29, 7, and 2 ng/mL were added thereto to cause a reaction at 4° C. for 40 minutes.
After the cells were washed three times with SM, goat anti-Human IgG alexa 647 (Molecular Probes) diluted to a concentration of 10 μg/mL with SM was added thereto at 100 μL/well to perform a reaction at 4° C. for 40 minutes. The cells were washed with SM and resuspended with 100 μL of SM, and the fluorescent intensity was measured by flow cytometry (BD Biosciences, FACS CantoII).
For orientation: In flow cytometry, cells or beads pass a laser one at a time.
Regarding B1, the binding result is given as “binds”.

The next assay addresses T2, FLAG fusion human CRTH2. Nature of the assay: flow cytometry on FLAG fusion human CRTH2-expressing 3Y1-B cells; logistic fit of Geomean; ± is the standard error. The procedure:
FLAG fusion human CRTH2-expressing 3Y1-B cells were peeled using a 0.25% trypsin-EDTA (NACALAI TESQUE, Inc.), washed with PBS, and suspended with SM. Next, the cells were seeded in a 96-well plate such that one well has 1×10⁵ cells. Further, chLym2 or each of the humanized Lym2 antibodies was added at each final concentrations of 50000, 12500, 3125, 781, 195, 49, 12, and 3 ng/mL to cause a reaction at 4° C. for 60 minutes.
After the cells were washed with SM, Goat F(ab′)₂ Anti-Human IgG PE (γchain specific) (Southern Biotech Inc.) diluted 500 times with SM was added to cause a reaction at 4° C. for 60 minutes. The cells were washed with SM and resuspended with 50 μL of SM, and the fluorescent intensity was measured by flow cytometry (BD Biosciences, FACS CantoII).
The data was analyzed by FLowJo 7.65 (Tomy Digital Biology Co., Ltd.), curve fitting of the Geomean value in each concentration was performed using a Logistic curve, and the 50% effective concentration (EC₅₀) value of the binding of chLym2 and each humanized Lym2 antibody and the standard error (SE) value thereof were calculated using R language (Ver. 3.02) which is a language for statistical analysis.
In the case of B2, the half-maximal effective concentration (EC50) is 0.55 µg/mL and 0.87 µg/mL.
On to B3, for which the EC50 was 0.5 µg/mL and 0.54 µg/mL.
Same read-out and setting: under B4 stands 0.7 µg/mL.
Same read-out and setting: under B5 stands 0.68 µg/mL; under B6, 0.51 µg/mL.
In the case of B7, it took 0.76 µg/mL to reach a half-maximal effect (EC50).
The same measure, in the same setting: under B8 stands 0.54 µg/mL; under B9, 0.81 µg/mL; under B10, 0.74 µg/mL.
On the same count and under the same terms, under B11 stands 0.65 µg/mL; under B12, 0.58 µg/mL.
Same read-out and setting: under B13 stands 0.68 µg/mL; under B14, 0.53 µg/mL; under B15, 0.72 µg/mL.
In turn, B16 yielded an EC50 of 0.67 µg/mL.
Same read-out and setting: under B1 stands 0.78 µg/mL.
Still for that read-out and setting: under B17 stands 0.66 µg/mL.
Same read-out and setting: under B18 stands 0.59 µg/mL; under B19, 0.69 µg/mL.
On to B20, for which the concentration for a half-maximal effect (EC50) amounted to 0.69 µg/mL.
B21: the EC50 was 0.58 µg/mL and 0.67 µg/mL.

The term EC50 denotes the concentration at which the effect is half-maximal.

For the origin of these results see patent publication US20180371100A1 (Kyowa Kirin, published 2018).
